The text below walks through data of patent publication US20060216716A1, “Immunologic activity measures for t helper on-associated conditions” (priority 2003, published 2006).

For one test, the system named is CXCL9. The experiment in a line: activated CXCL9 levels (interferon-gamma and tumor necrosis factor-alpha stimulation) in Crohn's Disease subjects by medication usage. The test is classed as in vivo. As to conditions: disease active or in remission, FIG. 7. The protocol:
(§1) Following informed consent, a heparinized whole blood sample. […] Finally, and the plate is again washed repeatedly.
In a subsequent experiment, a combination of stimulating cytokines (interferon-gamma and tumor necrosis factor-alpha) was administered to Crohn's Disease patients and the effects of medication studied.

The subject of a further test is CXCL10. As to conditions: within individual Crohn's Disease subjects; interferon-gamma activation; FIG. 4.
In test [1] the test system is WBC. The experiment in a line: ex vivo whole blood stimulation, CXCL10 release by WBC (ELISA). As to conditions: 3 hours post stimulation; subjects with Crohn's Disease or Ulcerative Colitis; FIG. 1. The test is classed as cell-based.
Description: as §1
This response also occurs in normal individuals as well.

Test [2] deals with WBC. The experiment in a line: ex vivo blood stimulation, CXCL9 levels. The test is classed as cell-based.
Description: as §1
The effects of different forms of activation and a combination of activating cytokines on CXCL9 levels in Crohn's Disease subjects was also studied.

On to `S=c1nc[nH]c2nc[nH]c12` [6 MP], for which the “effect of medication usage on activated CXCL9 levels” value with CXCL9 is on record as “brought about a change”.

On to azathioprine/6MP, for which, in the test on CXCL10, the “effect of medication on activated CXCL10 levels over time” value is “significant changes”.

B1: interferon-gamma (protein, UniProt P01579 24-161, looked up)
Interferon gamma: QDPYVKEAENLKKYFNAGHSDVADNGTLFLGILKNWKEESDRKIMQSQIVSFYFKLFKNFKDDQSIQKSVETIKEDMNVKFFNSNKKKRDDFEKLTNYSVTDLNVQRKAIHELIQVMAELSPAAKTGKRKRSQMLFRG
notes: pro-inflammatory stimulant cytokine added to the blood sample
For B1, in the test on WBC [1], the “CXCL10 response following stimulation” value is “a larger spread and an increase in the measurable values”. Moreover, the “serum CXCL9 concentration levels after stimulation” value is on record as “increased” with WBC [2] (Crohn's Disease subjects, FIG. 6); “increased” in the test with WBC [2] (Ulcerative Colitis subjects, active and inactive disease, FIG. 8).
